The target of test [1] is T1, Cetuximab-VEGF-Grab.
T1 construct: Made in Freestyle293F cells and purified on Protein A; also called Cet-Grab; scFv-Cetuximab-VEGF-Grab
The test is described as follows: BLI (BLItz), biotinylated VEGF-A on streptavidin biosensor, 1:1 model.
Experimental: (§1) Thereafter, to measure the dissociation rate (koff), each reaction product was allowed to react in a PBS buffer for 2 minutes. The final dissociation constant was calculated as a ratio of koff/kon. Sensorgrams were analyzed with the global fitting function using a 1:1 binding model (grouped by color and Rmax).

For test [2], the target named is T1, Cetuximab-VEGF-Grab. The test is described as follows: BLI; EGFR ECD pre-bound to Cet-Grab, then VEGF-A (reverse order); EGFR ECD pre-bound to Cet-Grab. (BLI is a label-free optical method that tracks binding on a fibre tip over time.)
The target in test [3] is T1, Cetuximab-VEGF-Grab. The experiment in a line: BLI (BLItz), biotinylated P1GF on streptavidin biosensor, 1:1 model.
Experimental: as §1
In test [4] the target is T1, Cetuximab-VEGF-Grab. The test is described as follows: BLI; EGFR ECD pre-bound to Cet-Grab, then P1GF (reverse order); EGFR ECD pre-bound to Cet-Grab.

For 2 molecules, Kd results are on record in patent US20200148757A1 (KOREA ADVANCED INSTITUTE OF SCIENCE AND TECHNOLOGY, published 2020).

As usually defined, the Kd is the concentration at which binding is half-saturated. The low end stands for tighter binding, the high end for weaker binding.

B1: human VEGF-A (ligand)
chain: APMAEGGGQNHHEVVKFMDVYQRSYCHPIETLVDIFQEYPDEIEYIFKPSCVPLMRCGGCCNDEGLECVPTEESNITMQIMRIKPHQGQHIGEMSFLQHNKCECRPKKDRARQENPCGPCSERRKHLFVQDPQTCKCSCKNTDSRCKARQLELNERTCRCDKPRR
notes: also called hVEGF-A
In the case of B1, the Kd in test [1] was determined as 1.04 nM; in test [2], 1.17 nM.

B2: human P1GF (ligand)
chain: LPAVPPQQWALSAGNGSSEVEVVPFQEVWGRSYCRALERLVDVVSEYPSEVEHMFSPSCVSLLRCTGCCGDENLHCVPVETANVTMQLLKIRSGDRPSYVELTFSQHVRCECRPLREKMKPERCGDAVPRR
notes: also called PlGF; placental growth factor
As for B2, the figures for the Kd in test [3] and in test [4] were 1.59 nM and 1.11 nM, respectively.
